{"source": "paper PMC4324353", "key": {"[1]": {"biological_target": "T1, latrunculin B bound actin (A. castellani actin monomer) (A. castellani)", "assay": "fluorescence polarisation"}, "[2]": {"biological_target": "actin filaments (polymerized A. castellani actin) (A. castellani)", "assay": "steady state polymerization titration"}, "[3]": {"biological_target": "T1, latrunculin B bound actin (A. …)", "assay": "fluorescence polarisation", "remark": "listed apart in the source"}}, "note": "Read-outs that look alike come from different tables or passages of the source."}
{"binder": "KKDAHAMILEFIRSRPPLKKASDRQLGPPRMCEPS (domain or fragment, modifications not checked)", "note": "[Spir third WH2 domain with Linker 3 (SC3)]", "values": [{"measurement": "Kd", "setting": "[1]", "value": 110, "unit": "nM"}]}
{"binder": "KKDAHAMILEFIRSRPPLKKA (domain or fragment, modifications not checked)", "note": "[Spir third WH2 domain (Spir-C, SC)]", "values": [{"measurement": "Kd", "setting": "[2]", "value": 2000, "unit": "nM"}, {"measurement": "Kd", "setting": "[1]", "value": 210, "unit": "nM"}]}
{"binder": "WARFWVQVIDELRRGVRLKKSNHERT (domain or fragment, modifications not checked)", "note": "[Spir first WH2 domain (SA)]", "values": [{"measurement": "Kd", "setting": "[1]", "value": 1140, "unit": "nM"}, {"measurement": "Kd", "setting": "[3]", "value": "90 to 1130", "unit": "nM"}]}
